Test results published in US8785135B2, “Mutant G-protein coupled receptors and methods for selecting them” (Heptares Therapeutics Limited, priority 2007, dated 2014).

Assay: Thermostability of NTR and mutants (3H-neurotensin binding)
Type: physicochemical
Conditions: for thermostability, heated in the presence of 3H-neurotensin: Ligand(+) format
Experimental: FIG. 12 Flow chart showing the two different assay formats of ligand (+) and ligand (−) used to determine receptor thermostability.
• 1. 340 site-directed mutants have been made between residues 61-400 of NTR. • 2. Initially, all of these mutants were assayed for thermostability using an assay measuring ^3H-neurotensin (agonist) binding after the heating step. […] Mutants tested for thermostability by heating in the absence of the agonist were re-tested using a slightly different assay where the mutants were heated in the presence of ^3H-neurotensin (Ligand(+) format in FIG. 12). […] All of these also have increased thermostability. • 5. Preferred combinations are • a. Nag7m F358A+A86L+I260A+F342A Tm 51° C. (neurotensin bound) • b. Nag7n F358A+H103A+I260A+F342A Tm 51° C. (neurotensin bound) • Wildtype NTR has a Tm of 35° C. with neurotensin bound.

B1: A73L: NTR point mutant (protein, UniProt P20789 1-424, looked up, variant A73L)
Neurotensin receptor type 1: MHLNSSVPQGTPGEPDAQPFSGPQSEMEATFLALSLSNGSGNTSESDTAGPNSDLDVNTDIYSKVLVTAIYLLLFVVGTVGNSVTAFTLARKKSLQSLQSTVHYHLGSLALSDLLILLLAMPVELYNFIWVHHPWAFGDAGCRGYYFLRDACTYATALNVASLSVERYLAICHPFKAKTLMSRSRTKKFISAIWLASALLAIPMLFTMGLQNRSGDGTHPGGLVCTPIVDTATVKVVIQVNTFMSFLFPMLVISILNTVIANKLTVMVHQAAEQGRVCTVGTHNGLEHSTFNMTIEPGRVQALRHGVLVLRAVVIAFVVCWLPYHVRRLMFCYISDEQWTTFLFDFYHYFYMLTNALFYVSSAINPILYNLVSANFRQVFLSTLACLCPGWRHRRKKRPTFSRKPNSMSSNHAFSTSATRETLY
thermostability, heated in the presence of 3H-neurotensin: improved thermostability

B2: V165A: NTR point mutant (protein, UniProt P20789 1-424, looked up, variant V165A)
Neurotensin receptor type 1: MHLNSSVPQGTPGEPDAQPFSGPQSEMEATFLALSLSNGSGNTSESDTAGPNSDLDVNTDIYSKVLVTAIYLALFVVGTVGNSVTAFTLARKKSLQSLQSTVHYHLGSLALSDLLILLLAMPVELYNFIWVHHPWAFGDAGCRGYYFLRDACTYATALNVASLSAERYLAICHPFKAKTLMSRSRTKKFISAIWLASALLAIPMLFTMGLQNRSGDGTHPGGLVCTPIVDTATVKVVIQVNTFMSFLFPMLVISILNTVIANKLTVMVHQAAEQGRVCTVGTHNGLEHSTFNMTIEPGRVQALRHGVLVLRAVVIAFVVCWLPYHVRRLMFCYISDEQWTTFLFDFYHYFYMLTNALFYVSSAINPILYNLVSANFRQVFLSTLACLCPGWRHRRKKRPTFSRKPNSMSSNHAFSTSATRETLY
thermostability, heated in the presence of 3H-neurotensin: improved thermostability

B3: M250A: NTR point mutant (protein, UniProt P20789 1-424, looked up, variant M250A)
Neurotensin receptor type 1: MHLNSSVPQGTPGEPDAQPFSGPQSEMEATFLALSLSNGSGNTSESDTAGPNSDLDVNTDIYSKVLVTAIYLALFVVGTVGNSVTAFTLARKKSLQSLQSTVHYHLGSLALSDLLILLLAMPVELYNFIWVHHPWAFGDAGCRGYYFLRDACTYATALNVASLSVERYLAICHPFKAKTLMSRSRTKKFISAIWLASALLAIPMLFTMGLQNRSGDGTHPGGLVCTPIVDTATVKVVIQVNTFMSFLFPALVISILNTVIANKLTVMVHQAAEQGRVCTVGTHNGLEHSTFNMTIEPGRVQALRHGVLVLRAVVIAFVVCWLPYHVRRLMFCYISDEQWTTFLFDFYHYFYMLTNALFYVSSAINPILYNLVSANFRQVFLSTLACLCPGWRHRRKKRPTFSRKPNSMSSNHAFSTSATRETLY
thermostability, heated in the presence of 3H-neurotensin: improved thermostability

B4: G215A: NTR point mutant (protein, UniProt P20789 1-424, looked up, variant G215A)
Neurotensin receptor type 1: MHLNSSVPQGTPGEPDAQPFSGPQSEMEATFLALSLSNGSGNTSESDTAGPNSDLDVNTDIYSKVLVTAIYLALFVVGTVGNSVTAFTLARKKSLQSLQSTVHYHLGSLALSDLLILLLAMPVELYNFIWVHHPWAFGDAGCRGYYFLRDACTYATALNVASLSVERYLAICHPFKAKTLMSRSRTKKFISAIWLASALLAIPMLFTMGLQNRSADGTHPGGLVCTPIVDTATVKVVIQVNTFMSFLFPMLVISILNTVIANKLTVMVHQAAEQGRVCTVGTHNGLEHSTFNMTIEPGRVQALRHGVLVLRAVVIAFVVCWLPYHVRRLMFCYISDEQWTTFLFDFYHYFYMLTNALFYVSSAINPILYNLVSANFRQVFLSTLACLCPGWRHRRKKRPTFSRKPNSMSSNHAFSTSATRETLY
thermostability, heated in the presence of 3H-neurotensin: improved thermostability

B5: E166A: NTR point mutant (protein, UniProt P20789 1-424, looked up, variant E166A)
Neurotensin receptor type 1: MHLNSSVPQGTPGEPDAQPFSGPQSEMEATFLALSLSNGSGNTSESDTAGPNSDLDVNTDIYSKVLVTAIYLALFVVGTVGNSVTAFTLARKKSLQSLQSTVHYHLGSLALSDLLILLLAMPVELYNFIWVHHPWAFGDAGCRGYYFLRDACTYATALNVASLSVARYLAICHPFKAKTLMSRSRTKKFISAIWLASALLAIPMLFTMGLQNRSGDGTHPGGLVCTPIVDTATVKVVIQVNTFMSFLFPMLVISILNTVIANKLTVMVHQAAEQGRVCTVGTHNGLEHSTFNMTIEPGRVQALRHGVLVLRAVVIAFVVCWLPYHVRRLMFCYISDEQWTTFLFDFYHYFYMLTNALFYVSSAINPILYNLVSANFRQVFLSTLACLCPGWRHRRKKRPTFSRKPNSMSSNHAFSTSATRETLY
thermostability, heated in the presence of 3H-neurotensin: improved thermostability

B6: I260A: NTR point mutant (protein, UniProt P20789 1-424, looked up, variant I260A)
Neurotensin receptor type 1: MHLNSSVPQGTPGEPDAQPFSGPQSEMEATFLALSLSNGSGNTSESDTAGPNSDLDVNTDIYSKVLVTAIYLALFVVGTVGNSVTAFTLARKKSLQSLQSTVHYHLGSLALSDLLILLLAMPVELYNFIWVHHPWAFGDAGCRGYYFLRDACTYATALNVASLSVERYLAICHPFKAKTLMSRSRTKKFISAIWLASALLAIPMLFTMGLQNRSGDGTHPGGLVCTPIVDTATVKVVIQVNTFMSFLFPMLVISILNTVAANKLTVMVHQAAEQGRVCTVGTHNGLEHSTFNMTIEPGRVQALRHGVLVLRAVVIAFVVCWLPYHVRRLMFCYISDEQWTTFLFDFYHYFYMLTNALFYVSSAINPILYNLVSANFRQVFLSTLACLCPGWRHRRKKRPTFSRKPNSMSSNHAFSTSATRETLY
thermostability, heated in the presence of 3H-neurotensin: improved thermostability

B7: A356L: NTR point mutant (protein, UniProt P20789 1-424, looked up, variant A356L)
Neurotensin receptor type 1: MHLNSSVPQGTPGEPDAQPFSGPQSEMEATFLALSLSNGSGNTSESDTAGPNSDLDVNTDIYSKVLVTAIYLALFVVGTVGNSVTAFTLARKKSLQSLQSTVHYHLGSLALSDLLILLLAMPVELYNFIWVHHPWAFGDAGCRGYYFLRDACTYATALNVASLSVERYLAICHPFKAKTLMSRSRTKKFISAIWLASALLAIPMLFTMGLQNRSGDGTHPGGLVCTPIVDTATVKVVIQVNTFMSFLFPMLVISILNTVIANKLTVMVHQAAEQGRVCTVGTHNGLEHSTFNMTIEPGRVQALRHGVLVLRAVVIAFVVCWLPYHVRRLMFCYISDEQWTTFLFDFYHYFYMLTNLLFYVSSAINPILYNLVSANFRQVFLSTLACLCPGWRHRRKKRPTFSRKPNSMSSNHAFSTSATRETLY
thermostability, 3H-neurotensin (agonist) binding after the heating step (heated in the absence of the agonist): small but significant increase in thermostability

B8: 1253A: NTR point mutant, Ile 253 to Ala (protein, UniProt P20789 1-424, looked up, variant I253A)
Neurotensin receptor type 1: MHLNSSVPQGTPGEPDAQPFSGPQSEMEATFLALSLSNGSGNTSESDTAGPNSDLDVNTDIYSKVLVTAIYLALFVVGTVGNSVTAFTLARKKSLQSLQSTVHYHLGSLALSDLLILLLAMPVELYNFIWVHHPWAFGDAGCRGYYFLRDACTYATALNVASLSVERYLAICHPFKAKTLMSRSRTKKFISAIWLASALLAIPMLFTMGLQNRSGDGTHPGGLVCTPIVDTATVKVVIQVNTFMSFLFPMLVASILNTVIANKLTVMVHQAAEQGRVCTVGTHNGLEHSTFNMTIEPGRVQALRHGVLVLRAVVIAFVVCWLPYHVRRLMFCYISDEQWTTFLFDFYHYFYMLTNALFYVSSAINPILYNLVSANFRQVFLSTLACLCPGWRHRRKKRPTFSRKPNSMSSNHAFSTSATRETLY
thermostability, heated in the presence of 3H-neurotensin: improved thermostability

B9: R183A: NTR point mutant (protein, UniProt P20789 1-424, looked up, variant R183A)
Neurotensin receptor type 1: MHLNSSVPQGTPGEPDAQPFSGPQSEMEATFLALSLSNGSGNTSESDTAGPNSDLDVNTDIYSKVLVTAIYLALFVVGTVGNSVTAFTLARKKSLQSLQSTVHYHLGSLALSDLLILLLAMPVELYNFIWVHHPWAFGDAGCRGYYFLRDACTYATALNVASLSVERYLAICHPFKAKTLMSASRTKKFISAIWLASALLAIPMLFTMGLQNRSGDGTHPGGLVCTPIVDTATVKVVIQVNTFMSFLFPMLVISILNTVIANKLTVMVHQAAEQGRVCTVGTHNGLEHSTFNMTIEPGRVQALRHGVLVLRAVVIAFVVCWLPYHVRRLMFCYISDEQWTTFLFDFYHYFYMLTNALFYVSSAINPILYNLVSANFRQVFLSTLACLCPGWRHRRKKRPTFSRKPNSMSSNHAFSTSATRETLY
thermostability, heated in the presence of 3H-neurotensin: improved thermostability

B10: A177L: NTR point mutant (protein, UniProt P20789 1-424, looked up, variant A177L)
Neurotensin receptor type 1: MHLNSSVPQGTPGEPDAQPFSGPQSEMEATFLALSLSNGSGNTSESDTAGPNSDLDVNTDIYSKVLVTAIYLALFVVGTVGNSVTAFTLARKKSLQSLQSTVHYHLGSLALSDLLILLLAMPVELYNFIWVHHPWAFGDAGCRGYYFLRDACTYATALNVASLSVERYLAICHPFKLKTLMSRSRTKKFISAIWLASALLAIPMLFTMGLQNRSGDGTHPGGLVCTPIVDTATVKVVIQVNTFMSFLFPMLVISILNTVIANKLTVMVHQAAEQGRVCTVGTHNGLEHSTFNMTIEPGRVQALRHGVLVLRAVVIAFVVCWLPYHVRRLMFCYISDEQWTTFLFDFYHYFYMLTNALFYVSSAINPILYNLVSANFRQVFLSTLACLCPGWRHRRKKRPTFSRKPNSMSSNHAFSTSATRETLY
thermostability, heated in the presence of 3H-neurotensin: improved thermostability

B11: V229A: NTR point mutant (protein, UniProt P20789 1-424, looked up, variant V229A)
Neurotensin receptor type 1: MHLNSSVPQGTPGEPDAQPFSGPQSEMEATFLALSLSNGSGNTSESDTAGPNSDLDVNTDIYSKVLVTAIYLALFVVGTVGNSVTAFTLARKKSLQSLQSTVHYHLGSLALSDLLILLLAMPVELYNFIWVHHPWAFGDAGCRGYYFLRDACTYATALNVASLSVERYLAICHPFKAKTLMSRSRTKKFISAIWLASALLAIPMLFTMGLQNRSGDGTHPGGLVCTPIADTATVKVVIQVNTFMSFLFPMLVISILNTVIANKLTVMVHQAAEQGRVCTVGTHNGLEHSTFNMTIEPGRVQALRHGVLVLRAVVIAFVVCWLPYHVRRLMFCYISDEQWTTFLFDFYHYFYMLTNALFYVSSAINPILYNLVSANFRQVFLSTLACLCPGWRHRRKKRPTFSRKPNSMSSNHAFSTSATRETLY
thermostability, heated in the presence of 3H-neurotensin: improved thermostability
